Measurements from patent US20240383984A1 (Genentech, published 2024).
Residue numbers refer to the chain shown, from its start. Numbers in names are those of the source.

Columns and labels:
[1] = biological target: T1, human FcRH5 protein fragment (soluble) (human, UniProt Q96RD9 16-851); assay: ELISA on FcRH5 (form of the coated FcRH5 not given)
T1 construct: whole entry named; also called soluble human FcRH5; Human FcRH5 (BIACORE analyte)
T1 sequence: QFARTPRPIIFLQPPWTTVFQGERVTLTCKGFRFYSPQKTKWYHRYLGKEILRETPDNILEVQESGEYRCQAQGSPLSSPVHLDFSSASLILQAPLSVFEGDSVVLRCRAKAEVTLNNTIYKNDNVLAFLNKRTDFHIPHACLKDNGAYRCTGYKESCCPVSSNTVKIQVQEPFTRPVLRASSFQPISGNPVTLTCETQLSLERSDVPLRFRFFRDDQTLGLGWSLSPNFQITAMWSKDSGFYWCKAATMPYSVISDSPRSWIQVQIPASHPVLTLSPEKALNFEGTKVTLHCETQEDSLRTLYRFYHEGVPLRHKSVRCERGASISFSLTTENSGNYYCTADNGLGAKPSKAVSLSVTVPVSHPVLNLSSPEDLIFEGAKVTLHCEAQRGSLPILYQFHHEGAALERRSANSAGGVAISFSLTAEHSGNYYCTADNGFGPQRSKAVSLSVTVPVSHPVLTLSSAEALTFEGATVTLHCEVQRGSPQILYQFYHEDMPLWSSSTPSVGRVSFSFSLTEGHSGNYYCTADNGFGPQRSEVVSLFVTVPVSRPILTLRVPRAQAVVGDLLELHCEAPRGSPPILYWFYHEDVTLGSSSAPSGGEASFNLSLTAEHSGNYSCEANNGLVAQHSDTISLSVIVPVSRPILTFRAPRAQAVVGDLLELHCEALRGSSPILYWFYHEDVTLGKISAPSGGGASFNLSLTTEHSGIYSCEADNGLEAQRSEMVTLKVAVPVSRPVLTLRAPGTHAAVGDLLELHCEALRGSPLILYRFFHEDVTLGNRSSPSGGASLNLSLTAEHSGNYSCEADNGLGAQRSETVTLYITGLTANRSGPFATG

[2] = biological target: T2, human CD3ε (human, UniProt P07766 23-126, limits assumed); assay: ELISA on CD3
T2 construct: also called hCD3ε
T2 sequence (P07766 23-126 limits assumed): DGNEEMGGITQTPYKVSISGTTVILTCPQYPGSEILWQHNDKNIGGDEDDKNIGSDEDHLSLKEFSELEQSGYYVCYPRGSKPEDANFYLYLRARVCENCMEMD

[3] = biological target: T3, cynomolgus FcRH5 protein fragment (soluble) (cynomolgus monkey); assay: SPR, hIgG capture, 1:1 model
T3 construct: whole entry named; also called Cyno FcRH5 (BIACORE analyte)
T3 chain: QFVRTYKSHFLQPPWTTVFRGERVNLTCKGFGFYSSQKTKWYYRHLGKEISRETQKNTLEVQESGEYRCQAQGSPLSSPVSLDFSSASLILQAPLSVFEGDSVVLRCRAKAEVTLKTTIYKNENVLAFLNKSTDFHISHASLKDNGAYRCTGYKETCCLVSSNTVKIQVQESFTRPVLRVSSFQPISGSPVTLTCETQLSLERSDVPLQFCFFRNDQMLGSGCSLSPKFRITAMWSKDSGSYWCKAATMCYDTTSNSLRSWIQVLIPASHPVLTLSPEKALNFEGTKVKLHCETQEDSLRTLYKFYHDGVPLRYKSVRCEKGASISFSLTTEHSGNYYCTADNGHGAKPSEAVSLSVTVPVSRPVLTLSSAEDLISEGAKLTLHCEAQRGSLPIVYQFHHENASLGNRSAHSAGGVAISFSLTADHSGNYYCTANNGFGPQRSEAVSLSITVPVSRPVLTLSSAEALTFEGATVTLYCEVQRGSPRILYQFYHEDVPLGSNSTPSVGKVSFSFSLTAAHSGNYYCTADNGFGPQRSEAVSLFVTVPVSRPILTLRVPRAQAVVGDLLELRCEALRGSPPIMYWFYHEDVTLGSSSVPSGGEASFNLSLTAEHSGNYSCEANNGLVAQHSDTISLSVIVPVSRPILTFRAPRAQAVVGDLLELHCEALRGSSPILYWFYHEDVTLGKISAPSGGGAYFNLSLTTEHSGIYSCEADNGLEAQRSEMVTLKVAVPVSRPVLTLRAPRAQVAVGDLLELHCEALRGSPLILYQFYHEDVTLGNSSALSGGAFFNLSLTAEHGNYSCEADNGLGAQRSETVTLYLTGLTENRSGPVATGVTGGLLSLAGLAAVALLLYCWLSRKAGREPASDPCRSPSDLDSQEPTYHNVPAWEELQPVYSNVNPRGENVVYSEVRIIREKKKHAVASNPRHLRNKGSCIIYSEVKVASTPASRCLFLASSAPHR
Protocol: (§1) Briefly, a human IgG capture surface was generated on a Series S CM5 chip using amine coupling and the human IgG capture kit (GE Life Sciences, Piscataway, NJ). Test antibodies were then captured on flow cells 2, 3, or 4, with flow cell 1 used as a reference. An FcRH5 protein fragment was used as the analyte, with a flow rate of […]. Between injections the capture surface was regenerated by a 30-second injection of 3M magnesium chloride or 10 mM glycine, pH 1.5. Interactions were assessed at 25° C. in 10 mM HEPES pH7.4, 150 mM NaCl, and 0.05% Tween 20 (HBSP). Reference data from the reference flow cell and from injection of buffer alone were subtracted prior to kinetic analysis. Kinetic information was calculated by fitting data to a 1:1 binding model. Reference subtraction and data fitting were performed using BIAevaluation software (GE Life Sciences, Piscataway, NJ).
(§2) Kinetic characterization experiments were carried out (see Table 8). In these experiments, binding of soluble FcRH5 protein fragment to purified antibodies in human TDB antibody format was analyzed at six different non-zero concentrations (a 1:3 dilution series, one concentration injected twice as a replicate). Flow rate was set at 40 μl/min and association and dissociation monitored for 600 s.

[4] = biological target: T1, human FcRH5 protein fragment (soluble); assay: SPR, hIgG capture, 1:1 model
Protocol: as §1, §2

[5] = biological target: T4, human FcRH1 (full-length, on SVT2 cells) (human, UniProt Q96LA6 17-429); assay: FACS, SVT2 cells
T4 construct: whole, on cells; also called SVT2-FcRH1
T4 sequence (looked up): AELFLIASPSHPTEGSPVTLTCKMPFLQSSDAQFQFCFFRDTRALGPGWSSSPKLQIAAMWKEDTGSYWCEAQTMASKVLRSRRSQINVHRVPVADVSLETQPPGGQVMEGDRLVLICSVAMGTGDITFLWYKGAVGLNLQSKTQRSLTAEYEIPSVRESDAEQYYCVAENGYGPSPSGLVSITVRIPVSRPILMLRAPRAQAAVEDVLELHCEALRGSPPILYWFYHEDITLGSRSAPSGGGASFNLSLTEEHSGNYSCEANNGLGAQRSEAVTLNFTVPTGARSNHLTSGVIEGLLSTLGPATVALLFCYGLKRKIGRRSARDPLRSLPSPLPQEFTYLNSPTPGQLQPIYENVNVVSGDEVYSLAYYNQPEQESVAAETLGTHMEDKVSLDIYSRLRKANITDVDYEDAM
Protocol: (§3) Human FcRH5, cyno FcRH5, human FcRH1, FcRH2, FcRH3, and FcRH4 transfected mouse SVT2 cells were used to test binding and cross-reactivity of FcRH5 TDBs. The method was carried out as follows. Cultured SVT2 cells were lifted using non-enzyme cell dissociation buffer (Sigma, #C5914). 1×10⁵ cells were suspended in 100 μL and incubated with FcRH5 TDBs at 3 μg/ml. […] Cells were washed twice with FACS buffer before flow cytometry analysis was carried out on a FACSCalibur.

[6] = biological target: T5, human FcRH4 (full-length, on SVT2 cells) (human, UniProt Q96PJ5 20-515); assay: FACS, SVT2 cells
T5 construct: whole, on cells; also called SVT2-FcRH4
T5 sequence (looked up): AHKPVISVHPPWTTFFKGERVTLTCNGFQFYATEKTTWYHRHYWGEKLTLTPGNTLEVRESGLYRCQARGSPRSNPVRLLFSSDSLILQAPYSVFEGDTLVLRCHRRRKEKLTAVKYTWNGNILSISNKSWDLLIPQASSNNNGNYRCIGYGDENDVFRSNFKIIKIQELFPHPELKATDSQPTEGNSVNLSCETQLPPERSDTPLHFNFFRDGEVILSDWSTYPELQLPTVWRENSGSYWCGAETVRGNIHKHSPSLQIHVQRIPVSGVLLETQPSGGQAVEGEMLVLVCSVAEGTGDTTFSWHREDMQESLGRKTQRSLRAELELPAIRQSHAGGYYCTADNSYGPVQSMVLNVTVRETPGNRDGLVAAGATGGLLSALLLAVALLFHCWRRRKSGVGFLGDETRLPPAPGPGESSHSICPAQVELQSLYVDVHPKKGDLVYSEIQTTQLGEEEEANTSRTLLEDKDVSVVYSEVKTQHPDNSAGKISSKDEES
Protocol: as §3

[7] = biological target: T1, human FcRH5 protein fragment (soluble); assay: BIACORE, TDB format
[8] = biological target: T1, human FcRH5 protein fragment (soluble); assay: SPR, hIgG capture, screening
[9] = biological target: T1, human FcRH5 protein fragment (soluble); assay: SPR (BIACORE), IgG captured via anti-human IgG, FcRH5 protein fragment as analyte (100 and 500 nM)
[10] = biological target: T1, human FcRH5 protein fragment (soluble); assay: BIACORE, human IgG1, soluble human FcRH5
[11] = biological target: T2, human CD3ε; assay: assay not stated

B1: bis-Fab B (bispecific antibody, V domains shown)
VH 1: EVQLVESGPGLVKPSETLSLTCTVSGFSLTRFGVHWVRQPPGKGLEWLGVIWRGGSTDYNAAFVSRLTISKDNSKNQVSLKLSSVTAADTAVYYCSNHYYGSSDYALDNWGQGTLVTVSS
VL 1: DIQMTQSPSSLSASVGDRVTITCKASQDVRNLVVWFQQKPGKAPKLLIYSGSYRYSGVPSRFSGSGSGTDFTLTISSLQPEDFATYYCQQHYSPPYTFGQGTKVEIK
VH 2: EVQLVQSGAEVKKPGASVKVSCKASGFTFTSYYIHWVRQAPGQGLEWIGWIYPENDNTKYNEKFKDRVTITADTSTSTAYLELSSLRSEDTAVYYCARDGYSRYYFDYWGQGTLVTVSS
VL 2: DIVMTQSPDSLAVSLGERATICCKSSQSLLNSRTRKNYLAWYQQKPGQSPKLLIYWTSTRKSGVPDRFSGSGSGTDFTLTISSLQAEDVAVYYCKQSFILRTFGQGTKVEIK
notes: bis-Fab: 1G7.v85 Fab (HC A114C, constant part) crosslinked to 38E4.v1 Fab (LC N22C)
[1]
  EC50 (read off the curve): ~10 ng/mL
[2]
  EC50 (read off the curve): ~7 ng/mL

B2: hu1G7.v1.4 (hIgG1) (antibody, V domains shown)
VH: B1 VH 1 with V64M
VL: B1 VL 1
notes: hIgG1
[3]
  Kd: 7.7 nM
  koff: 0.001 s⁻¹
  kon: 100000 M⁻¹ s⁻¹
[4]
  Kd: 2.6 nM
  koff: 0.002 s⁻¹
  kon: 700000 M⁻¹ s⁻¹

B3: hu1G7.v1.7/38E4.v1 TDB (bispecific antibody, V domains shown)
VH 1: B1 VH 1 with L29T, V64M
VL 1: B1 VL 1 with S52Y, S56T, S93Q
VH 2: B1 VH 2
VL 2: B1 VL 2 with C22N
notes: knob-into-hole TDB; also called 1G7.v1.7 TDB
[5]
  binding result: no binding (tested: 3 µg/ml)
[6]
  binding result: no binding (tested: 3 µg/ml)
[7]
  Kd: 0.6 nM

B4: F(ab′)2 A (bispecific antibody, V domains shown)
VH 1: B1 VH 1
VL 1: B1 VL 1
VH 2: B1 VH 2
VL 2: B1 VL 2 with C22N
[1]
  EC50 (read off the curve): ~50 ng/mL
[2]
  EC50 (read off the curve): ~0.7 ng/mL

B5: hu1G7.v1.5/38E4.v1 TDB (bispecific antibody, V domains shown)
VH 1: B1 VH 1 with V64M
VL 1: B1 VL 1 with R30S, L32I, A43S, S52Y, S56T, H91Q, Y92F, S93Q
VH 2: B1 VH 2
VL 2: B1 VL 2 with C22N
notes: knob-into-hole TDB; also called 1G7.v1.5 TDB
[5]
  binding result: no binding (tested: 3 µg/ml)
[6]
  binding result: no binding (tested: 3 µg/ml)
[7]
  Kd: 1.1 nM

B6: hu1G7.v85 (hIgG1) (antibody, V domains shown)
VH: B1 VH 1
VL: B1 VL 1
notes: bivalent hIgG1; also called hu1G7.v1.4.M64V
[3]
  Kd: 7.2 nM
  koff: 0.001 s⁻¹
  kon: 100000 M⁻¹ s⁻¹
[4]
  Kd: 2.5 nM
  koff: 0.002 s⁻¹
  kon: 600000 M⁻¹ s⁻¹
[8]
  Kd: 2.5 nM
[9]
  Kd: 2.5 nM
[10]
  Fold improvement over hu1G7.v1: 17 fold
  Kd: 0.8 nM

B7: 38E4.v11 (antibody, V domains shown)
VH: B1 VH 2
VL: B1 VL 2 with C22N, K95T
notes: humanized anti-CD3ε
[11]
  EC50: 0.05 nM

B8: bis-Fab D (bispecific antibody, V domains shown)
VH 1: B1 VH 1
VL 1: B1 VL 1
VH 2: B1 VH 2
VL 2: B1 VL 2
notes: bis-Fab: 1G7.v85 Fab (LC A149C, constant part) crosslinked to 38E4.v1 Fab (LC N22C)
[1]
  EC50 (read off the curve): ~10 ng/mL
[2]
  EC50 (read off the curve): ~7 ng/mL
